The text below walks through data of US20180066318A1 (INSTITUT PASTEUR, published 2018).

This assay deals with T1, in vitro translated HA-tagged NEMO (UniProt Q9Y6K9 1-419).
T1 construct: Negative control in the pull-down; made in TNT reticulocyte lysate; also called HA-NEMO; not shown: HA tag
Put plainly: GST pull-down of in vitro translated protein, anti-HA blot. The source says:
FIGS. 1a-1d: binding of CARMA1 SH3 domain to E-Syt2. GST pull-down assays show direct interaction between E-Syt2 and SH3 domains. Schematic representation of CARMA1 (a) and E-Syt2 (b) mutant constructs. (c) upper panel: pull-down assays of the interactions between CARMA1 SH3 domain (GST-SH3c), Vav SH3 domain (GST-SH3v) or GST and in vitro translated HA-tagged E-Syt2, or NEMO in TNT® reticulocytes lysate systems. Ten percent of the input TNT lysates was also run on the PAGE and immunoblot with anti-HA to determine the relative binding capacity. […] Jurkat T cells were incubated with Raji B cells and coated with medium alone or with SEE. At 10 minutes, cells were fixed and E-SYT2 localized by immunofluorescence and confocal microscopy, using anti-A-SYT2 antibody, as described in the experimental procedure. The corresponding Nomarski images are shown on the bottom panels. Scale Bars represent 1 μm. (d) ESYT2 localized in microclusters Jurkat cells were settle onto glass coverslips coated either with anti-CD3, anti-CD28 or both and fixed 5 min of stimulation. The images of E-Syt2, PKCθ and TCT staining were taken by confocal microscopy.

T1 sequence (Q9Y6K9 whole entry): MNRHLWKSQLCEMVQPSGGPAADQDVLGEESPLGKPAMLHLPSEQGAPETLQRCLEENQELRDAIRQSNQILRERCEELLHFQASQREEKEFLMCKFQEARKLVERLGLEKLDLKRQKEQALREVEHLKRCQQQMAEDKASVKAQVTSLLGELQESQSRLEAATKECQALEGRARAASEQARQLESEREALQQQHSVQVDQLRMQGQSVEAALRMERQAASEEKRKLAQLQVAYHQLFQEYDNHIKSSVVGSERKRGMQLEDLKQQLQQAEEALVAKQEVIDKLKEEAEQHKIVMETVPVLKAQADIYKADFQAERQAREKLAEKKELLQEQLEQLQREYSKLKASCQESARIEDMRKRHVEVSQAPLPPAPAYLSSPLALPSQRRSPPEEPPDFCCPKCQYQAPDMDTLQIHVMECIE

B1: GST fused to the Vav SH3 domain (GST-SH3v) (other, UniProt P15498 782-845, looked up)
chain: KYFGTAKARYDFCARDRSELSLKEGDIIKILNKKGQQGWWRGEIYGRVGWFPANYVEEDYSEYC
notes: domain: SH3 (C-ter Vav); also called pGEX-4T-SH3 (C-ter Vav); not shown: glutathione S-transferase of vector pGEX-4T
Turning to B1, the binding result is on record as “no binding”.
